The supplement of paper PMC9732359
± gives the uncertainty stated by the source.

assay: protein stability index of a GFP-peptide fusion (yeast GPS) (PSI 1-4); higher = more stable; sorted into four equal gates, so the index is relative within each strain; settings: doa10∆
Method in brief: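 Plasmids in a pooled yeast library fused tiled 17-residue yeast protein peptides downstream of GFP and also expressed Cherry. Mid-log cultures grown without leucine were sorted into four equal gates by GFP/Cherry fluorescence ratio. Each gate's plasmids were PCR-amplified and Illumina-sequenced, and reads were matched to strains by barcodes. The protein stability index is derived by multiplying each gate's read frequency by its gate number and summing the results.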

Sequence	protein stability index
DLMDEELRKHAQKRVSN [SKI6]	3.38 ± 0.16
DLSEKILNDIETLEHNP [BRR2]	3.06 ± 0.055
DLSSAASASGAAGAGAA [FAS2]	1.78 ± 0.13
DMLTWVDSNLPDDEKFT [RPC40]	2.92 ± 0.074
DNEEASVKLDLQDDEDH [BRN1]	2.99 ± 0.1
DNGGTILGIAGEDFAVL [PRE7]	3.46 ± 0.099
DNIRYATALQTCAGGRL [SMC2]	2.31 ± 0.086
DNIYRNLQKIDKDSEEL [MED4]	2.85 ± 0.078
DNKEKDFELEISWCSLS [PRE10]	3.54 ± 0.12
DNLLEMSDHSLDKLNCA [RRP6]	3.28 ± 0.099
DNLLLNLEQINEDLEDG [REC8]	2.81 ± 0.056
DNVNSTTGSIFEKDLMA [BRN1]	2.98 ± 0.067
DNVSFIEEAKSIRRQDY [REC8]	2.85 ± 0.12
DPASFYLFDEIDAALDK [SMC3]	2.89 ± 0.075
DPEKDSINATALAFGYV [SIN4]	2.16 ± 0.052
DPLLSLYNFLHKYVLTL [RGR1]	2.5 ± 0.043
DPPNEGDPFDYKAQADT [RPB3]	3.18 ± 0.13
DPQHKAIRRDARYNWIC [RPL15A]	2.86 ± 0.088
DPVLDWRKSDRELTKNI [SIR4]	2.89 ± 0.096
DQFHRDTISAITHQLNN [RPC25]	1.54 ± 0.049
DQFITSLKCTDPYELKG [ITC1]	3.02 ± 0.12
DQKIWPYLEKYPEYDQI [SSN3]	3.5 ± 0.12
DQKPIEHIKEGSEIAIS [SWI3]	2.93 ± 0.058
DQKTGRAKSSSHLFNEY [RPN4]	2.85 ± 0.25
DQNPIQVVVDAITNTGP [RPS5]	2.35 ± 0.053

Sequence	protein stability index
DQQSPWLLRLELDRAAM [RPO21]	1.49 ± 0.22
DQWLEEYKKHFPPNLEK [UBP6]	2.77 ± 0.081
DRFKYRSVDRAGRKFKS [POP4]	3.04 ± 0.2
DRFPLKLREPVARFLHF [ITC1]	1.69 ± 0.076
DRHIGCAMSGLTADARS [PUP2]	2.67 ± 0.096
DRQLHEISTSKKNNLEF [RPN14]	2.96 ± 0.064
DRRKARKAYFTAPSSER [RPL26B]	2.77 ± 0.17
DRTMLAPMDFAIVVGWR [FAS1]	2.49 ± 0.075
DRTQDRADVEDESNDID [RPC37]	3.33 ± 0.087
DSEGSIKQTSDESTIKR [ECM29]	3.43 ± 0.11
DSFENYFNQLKPYYFSN [RPN12]	2.66 ± 0.083
DSFSVPNRLVKELQYDN [PRE2]	3.02 ± 0.18
DSFTMPNISHSNIDYQT [SNF2]	2.4 ± 0.088
DSLKKLLPQWDDDQIES [ARP9]	3.32 ± 0.14
DSLNDDLNKENKLLRRK [YIL149C/MLP2]	2.98 ± 0.21
DSLTRAVKDQQKYTKEM [SNF2]	1.47 ± 0.19
DSQIVTPGELVTDDPIW [RRP4]	2.78 ± 0.19
DSRTTTGAYIANRVTDK [PRE3]	2.99 ± 0.13
DSSLQPEYFESPLQSSK [YMR129W/POM152]	3.19 ± 0.2
DSSTTSSNSQQSTPQPD [ITC1]	3.04 ± 0.046
DSTVVYPLPKFPTTSHE [MED8]	2.75 ± 0.048
DSVAAIGIPVNKASLAQ [QCR2]	2.63 ± 0.056
DSYLILDTLPSEFDSRV [RPT5]	2.83 ± 0.09
DTFLPPPPPPPSNFEIN [PRP8]	2.6 ± 0.039
DTLLLLPTDGGLTSRLQ [POP4]	3.01 ± 0.14

Sequence	protein stability index
DTNAPVAATITSSQKEP [SRB8]	2.35 ± 0.14
DTNNEADLMALENATWT [SNF12]	2.58 ± 0.074
DTNSSKPKNTKENLSKS [SIR4]	1.33 ± 0.21
DTQTFSVLLQQLLTPGS [YGL172W/NUP49]	1.31 ± 0.13
DTSAEKDQIQAGKWFDP [SIR4]	3.51 ± 0.12
DTSYKIDGKTVSYKDYS [SMC1]	2.6 ± 0.049
DTVNSALENDVATNIVN [YML103C/NUP188]	2.87 ± 0.051
DTYRTLMEEIESLKKEL [YIL149C/MLP2]	3.16 ± 0.1
DVIAWKNVLANSIWGSS [ITC1]	2.83 ± 0.14
DVKTAEEASQLIEYMEN [NUT1]	2.91 ± 0.086
DVRRLKKNVWRSINNLI [BRN1]	2.62 ± 0.29
DVTPADDLKQKKEELVE [RPO31]	3.12 ± 0.16
DWFTYSYFYRRIHVNPS [BRR2]	1.86 ± 0.047
DYMYENGKLTSANERLF [YML031W/NDC1]	3.37 ± 0.17
DYPSTSLDIRHDFIKGL [NUT1]	2.9 ± 0.14
DYRPAEETEAQAEPVEA [RPS3]	2.93 ± 0.075
DYSKPNLPPHYALFLKA [SSN2]	2.15 ± 0.07
DYYYEDAGSNQYYVTQH [SWI1]	3.15 ± 0.1
EAESLLQFHVATYMDND [RPO21]	2.82 ± 0.1
EAINGFKDETISKKIIG [SIR3]	3.08 ± 0.065
EALQYDPQPFLKHVLQL [SNU114]	2.17 ± 0.04
EAMYKLQLASLQQKQRD [SMC3]	2.71 ± 0.091
EAQDEASLQQQQQQDLQ [SNF6]	3.27 ± 0.14
EARFWHLVELLLVFRNA [YDL116W/NUP84]	2.69 ± 0.079
EATSNTNSEDKLSKVQL [MED4]	2.82 ± 0.13

Sequence	protein stability index
EAVEIPVNSADGKEDVE [SME1]	2.29 ± 0.061
ECGTGTTIHTFNRKENP [RPN14]	2.11 ± 0.18
ECSKDMKEDGLSFVDIV [SIR4]	2.75 ± 0.17
EDDESLGHKELKVRKGH [RPB2]	2.29 ± 0.071
EDDNTPAGHAGNPTNIS [YDL088C/ASM4]	2.87 ± 0.076
EDDSSNSCFSDGSQQNL [REC8]	3.7 ± 0.22
EDDTQIVTGNLVLDLLT [IRR1]	2.12 ± 0.055
EDEDEDLFGDSNKSNST [SSN2]	2.69 ± 0.05
EDEFIVQHDQILVMETS [SWP82]	2.95 ± 0.069
EDFPIDTWANGETIKSN [SEM1]	3.55 ± 0.14
EDILYYSTCPSETDLND [SRB8]	2.29 ± 0.12
EDLFETISQALLNAADR [PUP3]	2.81 ± 0.12
EDPKRRADTMDFKTDVD [YJL039C/NUP192]	3.29 ± 0.1
EDSSILQSIVNEISRNG [PCI8]	3.13 ± 0.13
EDTLSGYDPIVSTRAID [PRP28]	2.51 ± 0.2
EDTNTKPLFDFGKTGDQ [YOR098C/NUP1]	1.86 ± 0.25
EDVALNEQVKKFFLNNV [NAS6]	2.64 ± 0.047
EDVDDEELDITPLFPID [IRR1]	2.99 ± 0.19
EDYPMSSEIKIYYNELQ [SIR4]	1.95 ± 0.13
EEAKEEVTEEQAEATEW [RPS0A]	3.48 ± 0.12
EEASQLIEYMENDAKKS [NUT1]	2.95 ± 0.081
EEDDEGELEQAQAWINL [RPN7]	3.58 ± 0.28
EEDISDLWNNFGNIMDN [RRP6]	3.13 ± 0.078
EEGETSRPLKKVKILEQ [SWI3]	3.01 ± 0.11
EEGINKFKKEKFDIIIV [SRP54]	2.58 ± 0.05

same assay, conditions: pdr5∆

Sequence	protein stability index
DLMDEELRKHAQKRVSN [SKI6]	3.45 ± 0.11
